The text below walks through data of article PMC3248863, “The acid-tolerant L-arabinose isomerase from the mesophilic Shewanella sp. ANA-3 is highly active at low temperatures” (Microbial Cell Factories, 2011).

This data set concerns the molecule itself. Nature of the data set: SEC; size exclusion chromatography of the purified recombinant enzyme against protein markers of 669, 440, 232, 140 and 66 kDa; single peak of 230 kDa, compared with the 55 kDa band in reducing SDS-PAGE.

B1: Shewanella sp. ANA-3 L-arabinose isomerase (enzyme, UniProt A0KWX7 1-500, looked up)
chain: MKAFKQKQVWFITGSQDLYGPKVLEQVAKNSEQIVHGFNESSAISIEVVYKPTVKSPREIHAVCQAANSDENCVGVILWMHTFSPAKMWIAGLNELSKPFMHLHTQFNAELPWSEINMNYMNTHQSAHGCREFGFIGTRMRKERKVVVGHWQSSDVQAQIDDWCRAAAGWHESQNLRIARFGDNMRQVAVTEGDKVAAQIQFGYEVHAYSLGELNEAIADIAEGDVTAQLDRYASEYQVGNELFGDEYQLDRLRKEAKIELGLTQFLTQGGFGAFTNCFENLTGMTGLPGLATQRLMANGFGYGGEGDWKTAAMVRIMKVMGQGRAGGTSFMEDYTYNFGATDQVLGAHMLEVCPSIAAAKPRLEVHRHTIGVRCDVPRLLFTGKAGPAINVSTIDLGNRFRIILNELDTVTPPQDLPNLPVASALWEPRPNLAVAAAAWIHAGGAHHSAYSQAITTDQIVDFAEMAGAELVIIDADTKIREFKNELRQNSVYYGLARGL
notes: L-arabinose isomerase (EC 5.3.1.4) of Shewanella sp; ANA-3, product of the araA gene amplified from chromosomal DNA; 500 amino-acid residues, calculated mass 55.3 kDa; Six histidines at the N-terminal end from pET-15b; also called L-AI; Shewanella sp; ANA-3 L-AI; source: E. coli BL21 (DE3) (pMR38, pET-15b), purified (ammonium sulphate precipitation, IMAC, size exclusion chromatography)
As for B1, the stoichiometry N (commonly the number of molecules, sites or subunits per partner or assembly) stood at 4.
